The text below walks through data of PMC6408514.

Common to all, as to test: SEC; SEC-HPLC, Superose 6, PBS pH 7.4, samples at 2 mg/mL; 24-mer assembly
For assay [1], the target named is human H-chain ferritin mutant B (F81A/Q83A) (human).
Assay [2] deals with human H-chain ferritin mutant C (Q14A/D15A/R22A/F81A/Q83A) (human).
Assay [3] concerns the target human L-chain ferritin mutant D (S5T/T14Q/S22R/L81F/D116E/A119K/A123D following H-Ft numbering) (human).
Assay [4] addresses human H-chain ferritin mutant A (Q14A/D15A/R22A) (human).

“human H-chain ferritin mutant B (F81A/Q83A) (natural protein)” had a stoichiometry N in assay [1] of 24.

Take “human H-chain ferritin mutant C (Q14A/D15A/R22A/F81A/Q83A) (natural protein)”: the stoichiometry N in assay [2] was 24.

“human L-chain ferritin mutant D (S5T/T14Q/S22R/L81F/D116E/A119K/A123D following H-Ft numbering) (natural protein)” registered a stoichiometry N in assay [3] of 24.

“human H-chain ferritin mutant A (Q14A/D15A/R22A) (natural protein)”: the stoichiometry N in assay [4] came out at 24.

A word on the stoichiometry N: it is a count of units in the complex or per binding partner.
